Measurements: paper PMC5650921

Columns and labels:
[1] = biological target: EREG/sEGFR501 complex (human) (UniProt P00533); test: small-angle X-ray scattering
[2] = biological target: sEGFR501 1-501 (Homo sapiens) (UniProt P00533); conditions: cited from earlier work

Substance | Kd [1] [nM] | Kd [2] [nM]
EREG/sEGFR501 complex (from UniProt P00533 25-525; O14944 56-116) | > 200000 | –
sEGFR501 1-501 (from UniProt P00533) | – | 3000
